This passage reports Kd results from publication PMC13342644 (2026).

In assay [1] the target is NB2. Description: ELISA. (In an ELISA, binding on a coated surface is turned into a signal by an enzyme label.)
For assay [2], the target named is NB1. In words: ELISA.

B1: Avi-tagged, biotinylated GDP-mannose transporter Vrg4 from Candida albicans (natural protein)
chain: MDSKHSTSSSSSGSLATRISNSGPISIAAYCLSSILMTVTNKYVLSGFSFNLNFFLLAVQSIVCIVTIGSLKSLNIITYRQFNKDEAKKWSPIAFLLVAMIYTSSKALQYLSIPVYTIFKNLTIILIAYGEVIWFGGKVTTMALSSFLLMVLSSVIAYYGDNAAVKSHDDAFALYLGYFWMLTNCFASAAFVLIMRKRIKLTNFKDFDTMYYNNLLSIPILLICSFIFEDWSSANVSLNFPADNRVTTITAMILSGASSVGISYCSAWCVRVTSSTTYSMVGALNKLPIALSGLIFFEAAVNFWSVSSIFVGFGAGLVYAVAKQKQQKEQSQQLPTTK
modifications: biotin (Avi tag biotinylated using BirA ligase)
What is called Kd is a measure of binding affinity in units of concentration. A higher Kd goes with a looser complex. In the case of B1, the Kd in assay [1] stood at 125 nM; in assay [2], 109 nM.
